Laboratory results published in publication PMC3575847 (Nucleic Acids Research, 2012).

Target: T1, Upf1-FL produced in E. coli (Upf1-FLc; amino acids 1–1118) (human, UniProt Q92900-2 1-1118)
T1 sequence (looked up): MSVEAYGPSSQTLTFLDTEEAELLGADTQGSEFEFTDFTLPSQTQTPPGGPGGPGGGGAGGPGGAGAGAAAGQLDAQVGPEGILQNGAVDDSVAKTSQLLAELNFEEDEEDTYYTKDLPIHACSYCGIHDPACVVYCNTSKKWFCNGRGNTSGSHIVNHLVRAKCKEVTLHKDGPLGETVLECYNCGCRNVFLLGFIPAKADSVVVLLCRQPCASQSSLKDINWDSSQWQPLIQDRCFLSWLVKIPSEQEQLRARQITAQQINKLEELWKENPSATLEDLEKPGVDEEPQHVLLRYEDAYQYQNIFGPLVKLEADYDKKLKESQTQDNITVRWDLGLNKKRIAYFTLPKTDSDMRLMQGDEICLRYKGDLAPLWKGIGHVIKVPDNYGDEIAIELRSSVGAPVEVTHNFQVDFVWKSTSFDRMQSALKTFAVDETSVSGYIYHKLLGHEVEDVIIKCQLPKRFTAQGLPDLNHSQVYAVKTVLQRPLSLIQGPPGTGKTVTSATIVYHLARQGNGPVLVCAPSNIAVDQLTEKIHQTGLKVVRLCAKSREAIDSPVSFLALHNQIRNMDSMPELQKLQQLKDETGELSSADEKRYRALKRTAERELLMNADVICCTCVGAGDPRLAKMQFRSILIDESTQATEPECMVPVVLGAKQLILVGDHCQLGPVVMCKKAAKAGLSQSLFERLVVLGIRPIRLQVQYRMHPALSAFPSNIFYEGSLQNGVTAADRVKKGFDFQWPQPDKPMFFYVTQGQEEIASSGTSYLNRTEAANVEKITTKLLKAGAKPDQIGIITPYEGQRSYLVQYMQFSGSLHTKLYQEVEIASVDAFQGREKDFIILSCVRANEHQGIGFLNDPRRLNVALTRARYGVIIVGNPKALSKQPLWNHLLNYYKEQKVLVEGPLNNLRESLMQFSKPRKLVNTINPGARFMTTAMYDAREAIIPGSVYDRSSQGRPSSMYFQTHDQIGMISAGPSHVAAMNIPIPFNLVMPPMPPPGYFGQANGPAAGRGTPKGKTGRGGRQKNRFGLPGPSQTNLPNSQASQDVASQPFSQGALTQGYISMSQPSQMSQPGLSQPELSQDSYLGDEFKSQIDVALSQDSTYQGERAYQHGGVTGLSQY
Test: pull-down

binding result: binds
B1: CBP-tagged Upf2 (761–1227) (domain or fragment, UniProt Q9HAU5 761-1227, looked up)
chain: EKTVKKKRPPLQEYVRKLLYKDLSKVTTEKVLRQMRKLPWQDQEVKDYVICCMINIWNVKYNSIHCVANLLAGLVLYQEDVGIHVVDGVLEDIRLGMEVNQPKFNQRRISSAKFLGELYNYRMVESAVIFRTLYSFTSFGVNPDGSPSSLDPPEHLFRIRLVCTILDTCGQYFDRGSSKRKLDCFLVYFQRYVWWKKSLEVWTKDHPFPIDIDYMISDTLELLRPKIKLCNSLEESIRQVQDLEREFLIKLGLVNDKDSKDSMTEGENLEEDEEEEEGGAETEEQSGNESEVNEPEEEEGSDNDDDEGEEEEEENTDYLTDSNKENETDEENTEVMIKGGGLKHVPCVEDEDFIQALDKMMLENLQQRSGESVKVHQLDVAIPLHLKSQLRKGPPLGGGEGEAESADTMPFVMLTRKGNKQQFKILNVPMSSQLAANHWNQQQAEQEERMRMKKLTLDINERQEQED
